According to patent publication US20200087373A1 (UNIVERSITY OF COPENHAGEN, published 2020):
Ends that are not written are not given here. * marks the point of attachment. C16 diacid = O=C(O)CCCCCCCCCCCCCCC(=O)*; C12 diacid = O=C(O)CCCCCCCCCCC(=O)*; Stearoyl = CCCCCCCCCCCCCCCCCC(=O)*; Palmitoyl = CCCCCCCCCCCCCCCC(=O)*; Lauroyl = CCCCCCCCCCCC(=O)*

T1: human GIP receptor (human, UniProt P48546 22-466)
T1 sequence (looked up): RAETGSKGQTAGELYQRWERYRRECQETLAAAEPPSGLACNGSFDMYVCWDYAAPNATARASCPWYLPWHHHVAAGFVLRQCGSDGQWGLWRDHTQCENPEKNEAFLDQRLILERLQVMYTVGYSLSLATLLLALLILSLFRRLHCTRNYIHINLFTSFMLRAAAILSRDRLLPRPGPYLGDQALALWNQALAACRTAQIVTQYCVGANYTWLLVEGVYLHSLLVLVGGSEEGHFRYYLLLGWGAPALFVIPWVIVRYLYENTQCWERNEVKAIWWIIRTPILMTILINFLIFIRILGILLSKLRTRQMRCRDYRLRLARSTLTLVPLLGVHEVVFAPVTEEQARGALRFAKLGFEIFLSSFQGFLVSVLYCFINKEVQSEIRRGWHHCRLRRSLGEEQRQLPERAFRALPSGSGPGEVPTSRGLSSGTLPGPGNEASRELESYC

B1: AT143 [hGIP(3-30)NH2[M14L; H18K]-C16/18] (peptide)
peptide: EGTFISDYSIALDKIK(Palmitoyl)QQDFVNWLLAQK-NH2
modifications: N-terminus assumed
SMILES: CCCCCCCCCCCCCCCC(=O)NCCCC[C@H](NC(=O)[C@@H](NC(=O)[C@H](CCCCN)NC(=O)[C@H](CC(=O)O)NC(=O)[C@H](CC(C)C)NC(=O)[C@H](C)NC(=O)[C@@H](NC(=O)[C@H](CO)NC(=O)[C@H](Cc1ccc(O)cc1)NC(=O)[C@H](CC(=O)O)NC(=O)[C@H](CO)NC(=O)[C@@H](NC(=O)[C@H](Cc1ccccc1)NC(=O)[C@@H](NC(=O)CNC(=O)[C@@H](N)CCC(=O)O)[C@@H](C)O)[C@@H](C)CC)[C@@H](C)CC)[C@@H](C)CC)C(=O)N[C@@H](CCC(N)=O)C(=O)N[C@@H](CCC(N)=O)C(=O)N[C@@H](CC(=O)O)C(=O)N[C@@H](Cc1ccccc1)C(=O)N[C@H](C(=O)N[C@@H](CC(N)=O)C(=O)N[C@@H](Cc1c[nH]c2ccccc12)C(=O)N[C@@H](CC(C)C)C(=O)N[C@@H](CC(C)C)C(=O)N[C@@H](C)C(=O)N[C@@H](CCC(N)=O)C(=O)N[C@@H](CCCCN)C(N)=O)C(C)C
B2: AT144 [hGIP(3-30)NH2[K16R; H18K; K30R]-C16/18] (peptide)
peptide: EGTFISDYSIAMDRIK(Palmitoyl)QQDFVNWLLAQR-NH2
modifications: N-terminus assumed
SMILES: CCCCCCCCCCCCCCCC(=O)NCCCC[C@H](NC(=O)[C@@H](NC(=O)[C@H](CCCNC(=N)N)NC(=O)[C@H](CC(=O)O)NC(=O)[C@H](CCSC)NC(=O)[C@H](C)NC(=O)[C@@H](NC(=O)[C@H](CO)NC(=O)[C@H](Cc1ccc(O)cc1)NC(=O)[C@H](CC(=O)O)NC(=O)[C@H](CO)NC(=O)[C@@H](NC(=O)[C@H](Cc1ccccc1)NC(=O)[C@@H](NC(=O)CNC(=O)[C@@H](N)CCC(=O)O)[C@@H](C)O)[C@@H](C)CC)[C@@H](C)CC)[C@@H](C)CC)C(=O)N[C@@H](CCC(N)=O)C(=O)N[C@@H](CCC(N)=O)C(=O)N[C@@H](CC(=O)O)C(=O)N[C@@H](Cc1ccccc1)C(=O)N[C@H](C(=O)N[C@@H](CC(N)=O)C(=O)N[C@@H](Cc1c[nH]c2ccccc12)C(=O)N[C@@H](CC(C)C)C(=O)N[C@@H](CC(C)C)C(=O)N[C@@H](C)C(=O)N[C@@H](CCC(N)=O)C(=O)N[C@@H](CCCNC(=N)N)C(N)=O)C(C)C
B3: AT148 [hGIP(3-30)NH2-C12/3] (peptide)
peptide: Lauroyl-EGTFISDYSIAMDKIHQQDFVNWLLAQK-NH2
B4: AT149 [hGIP(3-30)NH2[H18R; K30R]-C12diacid/3] (peptide)
peptide: {C12 diacid}-EGTFISDYSIAMDKIRQQDFVNWLLAQR-NH2
SMILES: CC[C@H](C)[C@H](NC(=O)[C@H](CO)NC(=O)[C@H](Cc1ccc(O)cc1)NC(=O)[C@H](CC(=O)O)NC(=O)[C@H](CO)NC(=O)[C@@H](NC(=O)[C@H](Cc1ccccc1)NC(=O)[C@@H](NC(=O)CNC(=O)[C@H](CCC(=O)O)NC(=O)CCCCCCCCCCC(=O)O)[C@@H](C)O)[C@@H](C)CC)C(=O)N[C@@H](C)C(=O)N[C@@H](CCSC)C(=O)N[C@@H](CC(=O)O)C(=O)N[C@@H](CCCCN)C(=O)N[C@H](C(=O)N[C@@H](CCCNC(=N)N)C(=O)N[C@@H](CCC(N)=O)C(=O)N[C@@H](CCC(N)=O)C(=O)N[C@@H](CC(=O)O)C(=O)N[C@@H](Cc1ccccc1)C(=O)N[C@H](C(=O)N[C@@H](CC(N)=O)C(=O)N[C@@H](Cc1c[nH]c2ccccc12)C(=O)N[C@@H](CC(C)C)C(=O)N[C@@H](CC(C)C)C(=O)N[C@@H](C)C(=O)N[C@@H](CCC(N)=O)C(=O)N[C@@H](CCCNC(=N)N)C(N)=O)C(C)C)[C@@H](C)CC
B5: AT153 [hGIP(3-30)NH2[H18R; K30R]-C12/16] (peptide)
peptide: EGTFISDYSIAMDK(Lauroyl)IRQQDFVNWLLAQR-NH2
modifications: N-terminus assumed
SMILES: CCCCCCCCCCCC(=O)NCCCC[C@H](NC(=O)[C@H](CC(=O)O)NC(=O)[C@H](CCSC)NC(=O)[C@H](C)NC(=O)[C@@H](NC(=O)[C@H](CO)NC(=O)[C@H](Cc1ccc(O)cc1)NC(=O)[C@H](CC(=O)O)NC(=O)[C@H](CO)NC(=O)[C@@H](NC(=O)[C@H](Cc1ccccc1)NC(=O)[C@@H](NC(=O)CNC(=O)[C@@H](N)CCC(=O)O)[C@@H](C)O)[C@@H](C)CC)[C@@H](C)CC)C(=O)N[C@H](C(=O)N[C@@H](CCCNC(=N)N)C(=O)N[C@@H](CCC(N)=O)C(=O)N[C@@H](CCC(N)=O)C(=O)N[C@@H](CC(=O)O)C(=O)N[C@@H](Cc1ccccc1)C(=O)N[C@H](C(=O)N[C@@H](CC(N)=O)C(=O)N[C@@H](Cc1c[nH]c2ccccc12)C(=O)N[C@@H](CC(C)C)C(=O)N[C@@H](CC(C)C)C(=O)N[C@@H](C)C(=O)N[C@@H](CCC(N)=O)C(=O)N[C@@H](CCCNC(=N)N)C(N)=O)C(C)C)[C@@H](C)CC
B6: AT154 [hGIP(3-30)NH2-C12/16] (peptide)
peptide: EGTFISDYSIAMDK(Lauroyl)IHQQDFVNWLLAQK-NH2
B7: AT158 [hGIP(3-30)NH2[H18K]-C16diacid/18] (peptide)
peptide: EGTFISDYSIAMDKIK(C16 diacid)QQDFVNWLLAQK-NH2
modifications: N-terminus assumed
SMILES: CC[C@H](C)[C@H](NC(=O)[C@H](CO)NC(=O)[C@H](Cc1ccc(O)cc1)NC(=O)[C@H](CC(=O)O)NC(=O)[C@H](CO)NC(=O)[C@@H](NC(=O)[C@H](Cc1ccccc1)NC(=O)[C@@H](NC(=O)CNC(=O)[C@@H](N)CCC(=O)O)[C@@H](C)O)[C@@H](C)CC)C(=O)N[C@@H](C)C(=O)N[C@@H](CCSC)C(=O)N[C@@H](CC(=O)O)C(=O)N[C@@H](CCCCN)C(=O)N[C@H](C(=O)N[C@@H](CCCCNC(=O)CCCCCCCCCCCCCCC(=O)O)C(=O)N[C@@H](CCC(N)=O)C(=O)N[C@@H](CCC(N)=O)C(=O)N[C@@H](CC(=O)O)C(=O)N[C@@H](Cc1ccccc1)C(=O)N[C@H](C(=O)N[C@@H](CC(N)=O)C(=O)N[C@@H](Cc1c[nH]c2ccccc12)C(=O)N[C@@H](CC(C)C)C(=O)N[C@@H](CC(C)C)C(=O)N[C@@H](C)C(=O)N[C@@H](CCC(N)=O)C(=O)N[C@@H](CCCCN)C(N)=O)C(C)C)[C@@H](C)CC
B8: AT159 [hGIP(3-30)NH2[K16R; H18K; K30R]-C16diacid/18] (peptide)
peptide: EGTFISDYSIAMDRIK(C16 diacid)QQDFVNWLLAQR-NH2
modifications: N-terminus assumed
SMILES: CC[C@H](C)[C@H](NC(=O)[C@H](CO)NC(=O)[C@H](Cc1ccc(O)cc1)NC(=O)[C@H](CC(=O)O)NC(=O)[C@H](CO)NC(=O)[C@@H](NC(=O)[C@H](Cc1ccccc1)NC(=O)[C@@H](NC(=O)CNC(=O)[C@@H](N)CCC(=O)O)[C@@H](C)O)[C@@H](C)CC)C(=O)N[C@@H](C)C(=O)N[C@@H](CCSC)C(=O)N[C@@H](CC(=O)O)C(=O)N[C@@H](CCCNC(=N)N)C(=O)N[C@H](C(=O)N[C@@H](CCCCNC(=O)CCCCCCCCCCCCCCC(=O)O)C(=O)N[C@@H](CCC(N)=O)C(=O)N[C@@H](CCC(N)=O)C(=O)N[C@@H](CC(=O)O)C(=O)N[C@@H](Cc1ccccc1)C(=O)N[C@H](C(=O)N[C@@H](CC(N)=O)C(=O)N[C@@H](Cc1c[nH]c2ccccc12)C(=O)N[C@@H](CC(C)C)C(=O)N[C@@H](CC(C)C)C(=O)N[C@@H](C)C(=O)N[C@@H](CCC(N)=O)C(=O)N[C@@H](CCCNC(=N)N)C(N)=O)C(C)C)[C@@H](C)CC
B9: AT160 [hGIP(3-30)NH2[H18K]-C18/18] (peptide)
peptide: EGTFISDYSIAMDKIK(Stearoyl)QQDFVNWLLAQK-NH2
modifications: N-terminus assumed
SMILES: CCCCCCCCCCCCCCCCCC(=O)NCCCC[C@H](NC(=O)[C@@H](NC(=O)[C@H](CCCCN)NC(=O)[C@H](CC(=O)O)NC(=O)[C@H](CCSC)NC(=O)[C@H](C)NC(=O)[C@@H](NC(=O)[C@H](CO)NC(=O)[C@H](Cc1ccc(O)cc1)NC(=O)[C@H](CC(=O)O)NC(=O)[C@H](CO)NC(=O)[C@@H](NC(=O)[C@H](Cc1ccccc1)NC(=O)[C@@H](NC(=O)CNC(=O)[C@@H](N)CCC(=O)O)[C@@H](C)O)[C@@H](C)CC)[C@@H](C)CC)[C@@H](C)CC)C(=O)N[C@@H](CCC(N)=O)C(=O)N[C@@H](CCC(N)=O)C(=O)N[C@@H](CC(=O)O)C(=O)N[C@@H](Cc1ccccc1)C(=O)N[C@H](C(=O)N[C@@H](CC(N)=O)C(=O)N[C@@H](Cc1c[nH]c2ccccc12)C(=O)N[C@@H](CC(C)C)C(=O)N[C@@H](CC(C)C)C(=O)N[C@@H](C)C(=O)N[C@@H](CCC(N)=O)C(=O)N[C@@H](CCCCN)C(N)=O)C(C)C

Biological target: T1, human GIP receptor
Experiment: cell-based or functional assay

Binder	cAMP agonism, EC50 (log) [log M]	cAMP agonism, Emax [%]	cAMP agonism, nM (EC50) [nM]	cAMP antagonism, log (IC50) [log M]	cAMP antagonism, nM (IC50) [nM]
B1	-6.3	40	521	-7.8	15.1
B2	–	0	–	-7.3	53.3
B3	-7.9	43	13	–	–
B4	–	50	–	–	–
B5	–	0	–	-6.7	187
B6	–	0	–	-7.2	63
B7	-8.5	6	3.1	-8.3	5
B8	-8.7	6	2	-8.2	6
B9	-6	13	962	-7.4	38
